The target of test [1] is APLP2 peptide (APLP2 core sequence in the PVIVIT peptide). Kind of test: pull-down; biotinylated peptides (10 ug) precoupled to streptavidin-coated beads, incubated with 200 ng GST-CaN in 200 ul for 30 min at 4 C; PBS with 0.1% Tween-20 and 0.1% BSA, or 150 mM NaCl, 10 mM Hepes, 5 mM EDTA, pH 7.4 with 0.5% CHAPSO and 0.1% BSA; immunoblot with anti-CaN, normalised to a GST-CaN standard. A general note: In western blotting, separated proteins are transferred to a membrane and probed.

The target in test [2] is APLP1 peptide (APLP1 core sequence in the PVIVIT peptide). The test is described as above.

As for “recombinant GST-tagged CaN A subunit (from UniProt Q08209 1-521) (enzyme)”, the percent lower CaN binding than the PVIVIT peptide in test [1] came out at 30%; in test [2], 80%.

The record behind these values is publication PMC11910330, “Familial Alzheimer’s disease mutations in amyloid precursor protein impair calcineurin signaling to NMDA receptors” (The Journal of Biological Chemistry, 2024).
